Results as given in US20070015231A1, “Assay for protein tyrosine phosphatases” (CEPTYR, Inc., priority 2000, published 2007).
Substitutions are numbered along the chain they refer to. Numbers in names are those of the source. Like-named read-outs stand apart in the source and are kept apart here. Blank lines part the entries; values can stand above or below the molecule they belong to. Square brackets hold non-standard residues; d marks the D form. Ends that are not written are not given here. pY = N[C@@H](Cc1ccc(OP(=O)(O)O)cc1)C(=O)O

What was measured:
[1] = molecular target: T1, PTP1B (Homo sapiens, UniProt P18031); assay: PTP catalytic assay of F-ERP-P dephosphorylation with alternate reaction terminator molecules (FP); type: biochemical
T1 construct: PTP1B proteins (wild type and mutant forms) comprising amino acids 1-321 were expressed in E. coli; made in house; host or cells: E. coli
T1 sequence (P18031 1-321): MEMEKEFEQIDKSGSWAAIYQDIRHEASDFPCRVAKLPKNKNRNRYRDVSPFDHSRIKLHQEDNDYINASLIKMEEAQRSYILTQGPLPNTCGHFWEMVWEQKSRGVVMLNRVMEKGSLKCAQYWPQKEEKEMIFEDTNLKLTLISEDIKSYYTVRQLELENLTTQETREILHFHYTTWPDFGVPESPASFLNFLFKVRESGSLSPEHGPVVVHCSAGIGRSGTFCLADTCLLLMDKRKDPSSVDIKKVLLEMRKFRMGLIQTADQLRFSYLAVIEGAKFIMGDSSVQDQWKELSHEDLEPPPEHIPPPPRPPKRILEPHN
Method: The ability of each reaction terminator molecule also was assessed in the presence and absence of vanadate (a well known, nonspecific PTP inhibitor).
Assays were set up in black polypropylene plates with 20 μl of 25 mM Tris HCl pH 7.5 and 20 μl of 300 nM F-ERP-P in 25 mM Tris HCl pH 7.5, 1 mM EDTA, 1 mM DTT, 0.25 mg/ml ovalbumin (TEOD buffer). […] Plates were read using the Polarstar instrument from BMG Lab Technologies using the following settings:
As in Example 3, wells were set up to measure background fluorescence to allow proper calculation of mP values and other wells were set up without addition of terminator reagent to assess the minimum polarization value of the unbound fluorescent phosphotyrosyl peptide (F-ERP-P).

[2] = molecular target: T2, C215S PTP1B (Homo sapiens, UniProt P18031, C215S); assay: Inhibition of fluorescent EGF receptor peptide binding to CS substrate binding mutant (FP); settings: Table 3; fluorescein-labeled EGF receptor peptide
T2 construct: PTP1B proteins (wild type and mutant forms) comprising amino acids 1-321 were expressed in E. coli; made in house; host or cells: E. coli
T2 sequence (P18031 1-321 C215S): T1 sequence (P18031 1-321) with C215S
Method: (§1) To the test agents was added 40 μl of 3 nM CS or DA binding mutant of PTP1B in Assay Buffer. Plates were shaken for 30 sec to mix the two solutions. After another 12.5 minutes 40 μl of 3 nM fluorescein-labeled EGF receptor peptide was added and the solutions mixed for 30 sec. After 12.5 minutes of incubation the plates were read as described in Example 3.

[3] = molecular target: T3, D181A PTP1B (Homo sapiens, UniProt P18031, D181A); assay: Inhibition of fluorescent EGF receptor peptide binding to DA substrate binding mutant (FP)
T3 construct: PTP1B proteins (wild type and mutant forms) comprising amino acids 1-321 were expressed in E. coli; made in house; host or cells: E. coli
T3 sequence (P18031 1-321 D181A): T1 sequence (P18031 1-321) with D181A
Method: as §1

[4] = molecular target: fluorescein-labeled EGF receptor derived phosphopeptide D-A-D-E-pY-L-NH2 (human); assay: fluorescence polarization, mutant PTP titrated against fluorescein-labeled peptide in solution
[5] = molecular target: fluorescein-labeled insulin receptor derived phosphopeptide T-R-D-I-pY-E-T-D-Y-Y-R (human); assay: as above
[6] = molecular target: fluorescein-labeled EGF receptor derived phosphopeptide D-A-D-E-pY-L-NH2 (human); assay: fluorescence polarization, mutant PTP titrated against fluorescein-labeled peptide in solution (midpoint = apparent Kd)
[7] = molecular target: fluorescein-labeled insulin receptor derived phosphopeptide T-R-D-I-pY-E-T-D-Y-Y-R (human); assay: as above
[8] = molecular target: T4, PTP1B(C215S) (Homo sapiens, UniProt P18031, C215S); assay: PTP-1B (CS) binding assay: fluorescence polarization binding of fluorescein-labeled phosphotyrosyl peptides; settings: Table 1; midpoint of bound/unbound transition (apparent Kd)
T4 construct: PTP1B proteins (wild type and mutant forms) comprising amino acids 1-321 were expressed in E. coli; made in house; host or cells: E. coli
T4 sequence (P18031 1-321 C215S): T1 sequence (P18031 1-321) with C215S
Method: (§2) Two assay parameters were measured: (1) the dynamic range of the signal (i.e. the difference between polarization values of the bound and the unbound fluorescent substrate) and (2) the midpoint of the transition between bound and unbound that represents the apparent Kd (i.e. affinity) of each binding mutant for each peptide.
(§3) Assays were set up at room temperature in black polypropylene 96 well microtiter plates (Polyfiltronics, Whatman, U. K.) by the sequential addition of 40 μl of Assay Buffer, 40 μl of diluted binding protein and 40 μl of 0.3 nM fluorescein-labeled substrate peptide. After 15 min plates were read in a Criterion Analyst™ (LJL BioSystems, Inc., Sunnyvale, Calif.) in fluorescence polarization detection mode using the parameters listed as follows:
(§4) To obtain values for background fluorescence, assays were set up as above except the fluorescein-labeled substrate was replaced with Assay Buffer. To determine the fluorescence polarization values for the unbound substrate peptide, assays were set up as above except that the 40 μl of diluted binding protein was replaced with Assay Buffer.

[9] = molecular target: T5, PTP1B(D181A) (Homo sapiens, UniProt P18031, D181A); assay: PTP-1B (DA) binding assay: fluorescence polarization binding of fluorescein-labeled phosphotyrosyl peptides; settings: Table 2; midpoint of bound/unbound transition (apparent Kd)
T5 construct: PTP1B proteins (wild type and mutant forms) comprising amino acids 1-321 were expressed in E. coli; made in house; host or cells: E. coli
T5 sequence (P18031 1-321 D181A): T1 sequence (P18031 1-321) with D181A
Method: as §2, §3, §4

[10] = molecular target: LAR (Homo sapiens, UniProt P10586); settings: insulin receptor 1142-1152 peptide, pTyr1146; cited from earlier work
Chain of LAR (P10586 30-1907, species assumed): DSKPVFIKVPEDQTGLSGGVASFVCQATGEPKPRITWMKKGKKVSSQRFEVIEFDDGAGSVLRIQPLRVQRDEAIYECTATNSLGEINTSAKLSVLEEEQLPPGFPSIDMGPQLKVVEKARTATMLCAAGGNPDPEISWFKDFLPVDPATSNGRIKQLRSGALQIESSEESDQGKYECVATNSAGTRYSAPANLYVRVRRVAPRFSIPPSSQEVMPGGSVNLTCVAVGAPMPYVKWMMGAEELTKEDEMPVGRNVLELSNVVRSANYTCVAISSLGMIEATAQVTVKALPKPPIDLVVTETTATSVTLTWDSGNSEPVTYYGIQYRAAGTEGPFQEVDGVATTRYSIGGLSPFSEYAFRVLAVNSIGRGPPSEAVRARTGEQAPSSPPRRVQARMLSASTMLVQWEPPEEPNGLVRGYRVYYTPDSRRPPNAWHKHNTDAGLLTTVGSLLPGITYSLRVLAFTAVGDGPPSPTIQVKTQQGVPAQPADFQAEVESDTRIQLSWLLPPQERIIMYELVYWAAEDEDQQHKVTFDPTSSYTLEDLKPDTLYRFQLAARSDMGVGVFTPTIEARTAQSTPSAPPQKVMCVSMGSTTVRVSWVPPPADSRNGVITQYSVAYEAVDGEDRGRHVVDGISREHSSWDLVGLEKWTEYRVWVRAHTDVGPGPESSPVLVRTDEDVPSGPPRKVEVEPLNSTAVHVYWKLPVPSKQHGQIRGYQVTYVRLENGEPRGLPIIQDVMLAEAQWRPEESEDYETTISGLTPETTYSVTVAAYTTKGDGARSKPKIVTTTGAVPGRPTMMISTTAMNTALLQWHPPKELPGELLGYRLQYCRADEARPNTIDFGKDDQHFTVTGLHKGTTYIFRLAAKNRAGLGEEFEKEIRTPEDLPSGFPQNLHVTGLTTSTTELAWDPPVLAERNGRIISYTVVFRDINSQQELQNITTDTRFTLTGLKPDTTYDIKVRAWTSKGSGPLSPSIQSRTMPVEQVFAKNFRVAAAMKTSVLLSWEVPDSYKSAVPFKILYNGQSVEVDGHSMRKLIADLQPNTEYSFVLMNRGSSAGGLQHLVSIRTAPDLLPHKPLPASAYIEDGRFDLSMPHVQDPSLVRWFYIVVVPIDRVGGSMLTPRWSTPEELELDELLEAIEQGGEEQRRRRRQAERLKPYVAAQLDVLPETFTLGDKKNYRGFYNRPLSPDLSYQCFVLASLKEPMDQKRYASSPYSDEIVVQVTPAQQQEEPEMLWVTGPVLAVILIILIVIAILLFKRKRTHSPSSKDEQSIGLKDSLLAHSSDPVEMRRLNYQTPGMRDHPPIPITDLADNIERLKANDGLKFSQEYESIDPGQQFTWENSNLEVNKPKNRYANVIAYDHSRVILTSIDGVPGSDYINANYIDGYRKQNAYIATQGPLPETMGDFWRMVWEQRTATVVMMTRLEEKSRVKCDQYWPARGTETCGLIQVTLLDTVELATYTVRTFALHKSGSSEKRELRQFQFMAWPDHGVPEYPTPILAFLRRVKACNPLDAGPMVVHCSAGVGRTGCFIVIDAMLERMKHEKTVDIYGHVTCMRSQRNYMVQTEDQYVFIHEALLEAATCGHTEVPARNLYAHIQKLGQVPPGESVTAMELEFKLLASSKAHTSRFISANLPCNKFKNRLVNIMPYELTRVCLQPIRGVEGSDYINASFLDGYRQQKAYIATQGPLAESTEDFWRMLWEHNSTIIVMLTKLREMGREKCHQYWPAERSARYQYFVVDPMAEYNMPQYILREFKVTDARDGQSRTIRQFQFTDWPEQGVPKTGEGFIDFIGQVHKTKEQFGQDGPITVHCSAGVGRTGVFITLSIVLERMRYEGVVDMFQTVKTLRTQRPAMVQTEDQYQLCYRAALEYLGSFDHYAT

[11] = molecular target: T6, CD45 (Homo sapiens, UniProt P08575); settings: p56lck residues 500-509 peptide; read-out: Km toward CD45; cited from earlier work
T6 sequence (P08575 26-1306): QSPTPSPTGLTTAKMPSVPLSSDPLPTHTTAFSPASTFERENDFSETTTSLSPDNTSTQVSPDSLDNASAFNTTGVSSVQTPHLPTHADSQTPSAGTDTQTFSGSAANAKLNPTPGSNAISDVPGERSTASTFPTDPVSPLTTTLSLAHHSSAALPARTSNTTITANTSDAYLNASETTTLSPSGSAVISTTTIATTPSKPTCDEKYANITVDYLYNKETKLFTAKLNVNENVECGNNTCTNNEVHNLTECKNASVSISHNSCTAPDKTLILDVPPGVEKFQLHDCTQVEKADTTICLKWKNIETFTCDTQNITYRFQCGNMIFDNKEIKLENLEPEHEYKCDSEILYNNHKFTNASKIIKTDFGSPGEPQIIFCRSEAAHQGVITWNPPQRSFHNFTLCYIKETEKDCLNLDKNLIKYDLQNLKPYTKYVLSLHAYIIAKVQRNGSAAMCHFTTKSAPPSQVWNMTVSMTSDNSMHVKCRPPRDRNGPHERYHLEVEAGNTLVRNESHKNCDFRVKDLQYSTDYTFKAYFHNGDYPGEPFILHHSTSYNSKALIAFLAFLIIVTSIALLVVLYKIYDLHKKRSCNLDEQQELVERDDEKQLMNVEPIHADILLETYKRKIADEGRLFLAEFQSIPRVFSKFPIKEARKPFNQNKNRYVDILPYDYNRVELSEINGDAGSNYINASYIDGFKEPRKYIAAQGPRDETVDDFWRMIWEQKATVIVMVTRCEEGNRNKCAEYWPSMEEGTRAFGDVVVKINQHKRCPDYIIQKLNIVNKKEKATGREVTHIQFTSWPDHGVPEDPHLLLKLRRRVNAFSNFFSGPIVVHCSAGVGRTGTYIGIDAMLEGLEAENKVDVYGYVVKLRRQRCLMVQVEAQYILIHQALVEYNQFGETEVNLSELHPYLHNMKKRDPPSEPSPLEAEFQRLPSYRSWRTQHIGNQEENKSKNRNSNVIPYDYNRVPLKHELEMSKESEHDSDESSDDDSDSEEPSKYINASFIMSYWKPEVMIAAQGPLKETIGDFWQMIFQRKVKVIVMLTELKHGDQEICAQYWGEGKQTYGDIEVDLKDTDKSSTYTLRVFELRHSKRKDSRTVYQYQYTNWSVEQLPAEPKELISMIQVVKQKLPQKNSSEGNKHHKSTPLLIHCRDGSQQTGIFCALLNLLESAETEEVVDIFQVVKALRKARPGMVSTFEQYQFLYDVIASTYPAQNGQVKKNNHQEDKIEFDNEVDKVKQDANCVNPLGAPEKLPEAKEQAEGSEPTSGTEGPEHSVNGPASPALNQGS

[12] = molecular target: T7, fluorescein-labeled EGF receptor derived phosphopeptide D-A-D-E-pY-L-NH2 (not fully specified)
T7 chain: DADEYL

[13] = molecular target: fluorescein-labeled EGF receptor derived phosphopeptide D-A-D-E-pY-L-NH2 (human); assay: fluorescence polarization, C215S PTP1B as reaction terminator (Polarstar reader)
[14] = Table 3, fluorescein-labeled EGF receptor peptide, read-out: D181A IC50

Molecule: [Na+].[Na+].[Na+].[O]=[V]([O-])([O-])[O-] [sodium ortho vanadate]
effect of inclusion in the terminator mixes on observed endpoints ([1]; 2 mM in terminator solution with C215S PTP1B or G104): did not appear to have any additive effect

Molecule: OO [H2O2, hydrogen peroxide]
IC50 [2]: 250000 nM
IC50 [3, 14]: 10000 nM
IC50 ([3]; read-out: IC50 for inhibition of the DA substrate binding mutant): ~10000 nM

Molecule: CC[C@H](C)[C@H](NC(=O)[C@H](CC(=O)O)NC(=O)[C@H](CCCNC(=N)N)NC(=O)[C@@H](NC(=O)c1ccc2c(c1)C(=O)OC21c2ccc(O)cc2Oc2cc(O)ccc21)[C@@H](C)O)C(=O)N[C@@H](Cc1ccc(OP(=O)(O)O)cc1)C(=O)N[C@@H](CCC(=O)O)C(=O)N[C@H](C(=O)N[C@@H](CC(=O)O)C(=O)N[C@@H](Cc1ccc(O)cc1)C(=O)N[C@@H](Cc1ccc(O)cc1)C(=O)N[C@@H](CCCNC(=N)N)C(=O)O)[C@@H](C)O [F-IR-P, T-R-D-1-pY-E-T-D-Y-Y-R]
EC50 [8]: 1.16 nM
EC50 [9]: 0.508 nM
Km [10]: 27 µM

Molecule: A-T-E-G-Q-pY-Q-P-Q-P (ATEGQ[pY]QPQP; also: fluorescein label) [F-lck-P]
Km [11]: 130 µM

B1: PTP1B (wild type), amino acids 1-321 (protein)
chain: T1 sequence (P18031 1-321)
time to complete dephosphorylation of F-ERP-P (fluorescence polarization catalytic assay) [12]: under these conditions the dephosphorylation of F-ERP-P was complete by 20 minutes

Second part, led by results:

Peak Mp [4]: 269 mP
Peak Mp [5]: 132 mP
EC50 [6]: 1.07 nM
EC50 [7]: 0.508 nM
Molecule: PTP1B(D181A), amino acids 1-321 (from UniProt P18031 1-321) (enzyme)

IC50 [2]: 150000 nM
IC50 [3, 14]: 120000 nM
Molecule: N[C@@H](Cc1ccc(OP(=O)(O)O)cc1)C(=O)O [P-Tyr, phosphotyrosine]

maximum polarization value for bound peptide [13]: 300 mP
Peak mP [4]: 316 mP
Peak mP [5]: 151 mP
EC50 [6]: 0.965 nM
EC50 [7]: 1.16 nM
B2: PTP1B(C215S), amino acids 1-321 (protein)
chain: T1 sequence (P18031 1-321) with C215S
termination of PTP1B-mediated dephosphorylation of F-ERP-P [12]: monoclonal antiphosphotyrosine antibody G104 and the C215S-PTP1B binding mutant were equally effective at stopping the dephosphorylation reaction
stopping of the dephosphorylation reaction (reaction terminator) ([1]; reactions stopped after 11 min, polarization stable for 14 hours): equally effective at stopping the dephosphorylation reaction
